Article PMC6539845
Read-outs that look alike come from different tables or passages of the source.

Assays:
[1] = target: single-ring α7 mutant α7^SR (S96D, S100D, F102R, Y104R) (human); test: native MS; α4 or α6 (4 μM monomers) mixed with α7^SR (4 μM heptamer), 20 °C, 1 h; α2 incubated with α7^SR before buffer exchange; 150 mM ammonium acetate
[2] = target: monomeric α7 mutant α7* (N-terminal residues 1-22 replaced with a hexahistidine-containing segment) (human) (UniProt P25788); test: SEC; α1–α6 (20 μM monomers) mixed with an equimolar amount of α7*, 20 °C, 1 h; SDS-PAGE (CBB) of the purified complexes
[3] = target: human proteasome α6 subunit, short isoform (human) (UniProt P25786); test: native MS; single proteins, 5–20 μM monomers, 150 mM ammonium acetate (pH 6.8–8.0), nanoflow electrospray
[4] = target: human proteasome α7 subunit, wild type (human) (UniProt P25788); test: native MS; α4 or α6 (4 μM monomers) mixed with α7 (2 μM tetradecamer), 20 °C, 1 h, 150 mM ammonium acetate
[5] = target: human proteasome α7 subunit, wild type (human) (UniProt P25788); test: as above; remark: listed apart in the source
[6] = target: human proteasome α7 subunit, wild type (human) (UniProt P25788); test: SEC; wild-type α7 in the presence of α1–α6 or α7* (20 μM monomers); loss of the tetradecamer peak
[7] = target: human proteasome α7 subunit, wild type (human) (UniProt P25788); test: native MS; single proteins, 5–20 μM monomers, 150 mM ammonium acetate (pH 6.8–8.0), nanoflow electrospray
[8] = target: single-ring α7 mutant α7^SR (S96D, S100D, F102R, Y104R) (human); test: as above
[9] = target: single-ring α7 mutant α7^SR (S96D, S100D, F102R, Y104R) (human); test: as above; remark: listed apart in the source
[10] = target: single-ring α7 mutant α7^SR (S96D, S100D, F102R, Y104R) (human); test: atomic force microscopy; α7^SR alone (Figure S2); height of the ring

human proteasome α7 subunit, wild type (human), sequence (P25788 whole entry): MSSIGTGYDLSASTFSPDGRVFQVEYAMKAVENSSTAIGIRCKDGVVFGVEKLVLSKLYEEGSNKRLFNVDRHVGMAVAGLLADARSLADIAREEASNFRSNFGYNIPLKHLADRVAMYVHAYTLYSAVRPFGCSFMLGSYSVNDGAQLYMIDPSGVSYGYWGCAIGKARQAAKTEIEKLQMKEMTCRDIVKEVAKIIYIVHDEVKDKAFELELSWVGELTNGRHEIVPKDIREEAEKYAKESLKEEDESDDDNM
human proteasome α6 subunit, short isoform, sequence (P25786 whole entry, canonical isoform): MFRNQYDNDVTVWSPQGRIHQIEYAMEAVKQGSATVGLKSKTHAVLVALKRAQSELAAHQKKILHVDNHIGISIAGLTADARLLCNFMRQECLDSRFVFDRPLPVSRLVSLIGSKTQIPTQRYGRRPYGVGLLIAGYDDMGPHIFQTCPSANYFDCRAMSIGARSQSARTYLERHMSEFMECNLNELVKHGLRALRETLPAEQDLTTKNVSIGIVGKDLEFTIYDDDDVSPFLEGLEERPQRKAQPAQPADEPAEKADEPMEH
human proteasome α4 subunit, sequence (O14818 whole entry): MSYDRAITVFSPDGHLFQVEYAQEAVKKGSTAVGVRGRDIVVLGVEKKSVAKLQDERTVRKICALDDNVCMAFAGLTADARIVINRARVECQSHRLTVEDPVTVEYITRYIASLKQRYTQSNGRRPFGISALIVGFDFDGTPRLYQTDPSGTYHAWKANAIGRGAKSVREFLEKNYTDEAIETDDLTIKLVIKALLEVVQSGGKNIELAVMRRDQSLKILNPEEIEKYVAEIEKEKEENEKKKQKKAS
human proteasome α2 subunit, sequence (P25787 whole entry): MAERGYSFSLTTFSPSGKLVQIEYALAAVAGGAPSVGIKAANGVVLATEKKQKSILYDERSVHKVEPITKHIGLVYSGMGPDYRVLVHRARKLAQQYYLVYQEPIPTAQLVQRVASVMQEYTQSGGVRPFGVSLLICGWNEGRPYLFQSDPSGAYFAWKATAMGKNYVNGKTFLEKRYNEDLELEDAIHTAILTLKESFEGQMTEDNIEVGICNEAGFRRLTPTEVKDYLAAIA
human proteasome α7 subunit, wild type, sequence (P25788 whole entry): as the sequence (P25788 whole entry) above

Q: How did the stoichiometry N (α7^SR subunits per α2) [1] turn out when “human proteasome α2 subunit (from UniProt P25787 1-234) (natural protein)” was run?
A: Its stoichiometry N (α7^SR subunits per α2) is 7.

Q: How did the stoichiometry N [2] turn out when “human proteasome α4 subunit (from UniProt O14818 1-248) (natural protein)” was run?
A: The stoichiometry N was 1.2 α7· per α4.

Q: What about the stoichiometry N (α7^SR subunits per α4) [1] of the same substance?
A: The stoichiometry N (α7^SR subunits per α4) was 7.

Q: What does the source list for “human proteasome α6 subunit, short isoform (from UniProt P25786 1-263) (natural protein)”?
A: stoichiometry N [3]: 2; stoichiometry N (α7 subunits per α6) [4]: 14; stoichiometry N (α7 subunits per α6) [5]: 7; stoichiometry N (α7^SR subunits per α6) [1]: 7; percent of the α7 tetradecamer disrupted into smaller complexes [6]: 50%

Q: For “human proteasome α7 subunit, wild type (from UniProt P25788 1-255) (natural protein)”, which stoichiometry N [7] is on record?
A: The stoichiometry N was 14.

Q: For “single-ring α7 mutant α7^SR (S96D, S100D, F102R, Y104R) (natural protein)”, which stoichiometry N [8] is on record?
A: The stoichiometry N was 7.

Q: What about the stoichiometry N [9] of the same substance?
A: Its stoichiometry N is 14.

Q: And the stoichiometry N [10]?
A: Its stoichiometry N is 7.
